The text below walks through data of patent US20260022160A1 (AFFYXELL THERAPEUTICS, published 2026).

As usually defined, the EC50 is the concentration giving half of the maximal effect.

Where “and” joins values, the source holds several entries; their conditions need not be identical. Identical values can stand only once.

The target of assay [1] is T1, human CD40L expressed on HEK293 cells (human, UniProt P29965 1-261).
T1 construct: whole, on cells; also called hCD40L-HEK293 cells; hCD40L-HEK-293 cells (Crown Biosciences, C2041)
T1 sequence (looked up): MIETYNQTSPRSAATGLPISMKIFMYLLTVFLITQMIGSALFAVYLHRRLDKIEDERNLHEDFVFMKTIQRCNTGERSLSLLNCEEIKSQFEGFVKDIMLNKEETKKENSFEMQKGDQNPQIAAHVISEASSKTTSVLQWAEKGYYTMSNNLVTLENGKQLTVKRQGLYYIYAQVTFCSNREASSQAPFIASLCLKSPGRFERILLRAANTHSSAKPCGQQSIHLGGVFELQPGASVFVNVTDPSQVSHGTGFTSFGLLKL
The assay can be described thus: flow cytometry, clone at 1 uM on hCD40L-HEK293 cells (hatched), HEK-293 negative cells as control (open), detection anti-Cystatin A + A488 anti-goat. How it is done:
The cells were resuspended in PBS and 200,000 cells per well were dispatched in a round bottom 96 well plate. Cells were washed with PBS. The stefin A protein variant and controls were diluted in staining buffer containing 1% BSA, 0.01% Sodium Azide (NaN3), 2 mM EDTA in DPBS in duplicate and added on cells for staining for approximately 60 min at 4±1° c. Cells were washed and the secondary anti-Cystatin A (R&D, AF1407) was diluted 0.2 mg/ml in staining buffer and added on cells for staining for approximately 45 min at 4±1° c. Cells were washed again and the detection antibody A488 anti-goat (ThermoFisher, A21467) was diluted 1:500 in staining buffer and added to the cells for staining (approximately 30 min at 4±1° C.). Finally, the cells were washed and live and dead cells were stained using L/D stain Zombie Yellow (Biolegend, 423103) diluted in staining buffer for 10 min at 4±1° C. Cells were washed again and fixation buffer (R&D) was added to each well for 10 min at 4±1° C. then PBS with EDTA (Lonza) was added prior reading the plate on the flow cytometer (Guava 12 HT, Millipore). Dead cells were excluded, and the fluorescent green channel (488 nm/525/30) was acquired. Results were analyzed using Incyte and data were plotted using GraphPad.
(A flow cytometer gives signals particle by particle.)

Assay [2] concerns the target T2, human CD40L (human, UniProt P29965 113-261, limits assumed).
T2 construct: also called hCD40L; huCD40L
T2 sequence (looked up): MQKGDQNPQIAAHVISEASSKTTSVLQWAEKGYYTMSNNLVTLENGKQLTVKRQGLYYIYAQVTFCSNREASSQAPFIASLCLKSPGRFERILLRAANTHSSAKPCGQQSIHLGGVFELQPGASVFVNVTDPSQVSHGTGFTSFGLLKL
Kind of assay: direct binding ELISA on plate-coated hCD40L (5 ug/ml), detection biotinylated anti-cystatin A antibody + polyHRP-streptavidin, OD 450-630 nm; the table prints 268, the curve legend prints Clone -288 in its place. The protocol: Plates were washed 2 times with 150 μl of washing buffer (PBS, Tween 20 0.1%) with a plate washer and saturated with Casein 5% (Sigma) in PBS for 90 minutes at room temperature (25±1° C.). For binding, each DAW01 clone and rhCD40 Fc were added to the plate, starting from 1 μM, 1 in 3 and 300 nM, 1 in 3 respectively. Plates were washed 3 times as described previously. […] Then, cystatin A biotinylated polyclonal antibody (BAF1407) was diluted to a concentration of 0.05 μg/ml in dilution buffer (PBS, 1% casein, 0.01% Tween 20) and the plate was incubated for 90 minutes at room temperature (25±1° C.). PolyHRP-streptavidin was then diluted in dilution buffer and the plates were incubated for 90 minutes at room temperature (25±1° C.). The plates were then washed 3 times as described previously, and the substrate (TMB, Pierce Thermo-Scientific) was added to the plates for 10 minutes. The reaction was stopped using an acidic solution, and plates were read at 450-630 nm.

Assay [3] concerns the target T3, human Mega CD40L recombinant protein (Enzo Lifesciences) (human, UniProt P29965 116-261).
T3 sequence (looked up): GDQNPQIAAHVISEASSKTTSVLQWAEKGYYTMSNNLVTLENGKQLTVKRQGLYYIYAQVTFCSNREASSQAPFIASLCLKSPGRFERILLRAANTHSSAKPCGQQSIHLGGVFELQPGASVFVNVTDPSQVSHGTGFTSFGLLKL
The assay can be described thus: cell-based or functional assay.

Assay [4] concerns the target T3, human Mega CD40L recombinant protein …. The assay can be described thus: cell-based or functional assay. The source holds these as a separate data set.
Assay [5] deals with T4, recombinant human CD40L (R&D Systems, 6420-CL-025/CF) (human, UniProt P29965 108-261, limits assumed).
T4 sequence (looked up): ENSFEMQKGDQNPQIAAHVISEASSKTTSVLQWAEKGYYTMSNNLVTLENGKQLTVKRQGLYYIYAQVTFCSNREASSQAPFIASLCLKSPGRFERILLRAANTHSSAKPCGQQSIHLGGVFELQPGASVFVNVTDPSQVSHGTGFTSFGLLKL
Kind of assay: binding ELISA, plate-coated recombinant human CD40L, concentrated culture fluid; first-named of the two gene-introduced cell lines (two promoters); promoter not told. How it is done: (§1) Each cell line was inoculated into a T175 flask at a cell density of 4.0×10³ cells/cm² using a culture medium. After culture at 37° C. and 5% CO₂ for 18 to 24 hours, the culture medium was thoroughly replaced with a fresh culture medium every 2 days, followed by culture. After culture for 3 days, the cells were harvested, and 7.0×10⁶ cells were inoculated into a T175 flask, followed by culture at 37° C. and 5% CO₂ for 18 to 24 hours. The culture medium was thoroughly removed, and the remaining medium was completely removed through washing with 10 mL of MEM alpha. 30 mL of an MEM alpha medium was added to a T175 flask, followed by culture for 48 hours. After 48 hours, all of the cell culture fluid was harvested and then centrifuged to remove residual cells and impurities. The cell culture fluid was transferred to a Vivaspin 20 and centrifuged, the culture fluid was concentrated, and the stefin A protein variant was quantified through sandwich ELISA (LSBio, LS-F4620). […] The unbound stefin A protein variant was removed through washing, after which the extent of binding between the stefin A protein variant and CD40L was detected based on a difference in absorbance resulting from reaction with a TMB substrate.
A general note: ELISA stands for enzyme-linked immunosorbent assay.

Assay [6] has as its target T4, recombinant human CD40L (R&D Systems, …). The assay can be described thus: binding ELISA, plate-coated recombinant human CD40L, concentrated culture fluid; second-named of the two gene-introduced cell lines (two promoters); promoter not told. How it is done:
as §1

In assay [7] the target is T2, human CD40L. The assay can be described thus: ELISA on plate-coated hCD40L, no HSA, detection with anti-cystatin antibody, OD 450-630 nm. How it is done:
After a last washing step, TMB was added for the development of the experiment and the plates were read at 450 nm. The EC50 was then calculated using the interpolated non-linear four-parameters standard curve (FIG. 12C).

Assay [8] deals with T2, human CD40L. Kind of assay: ELISA on plate-coated hCD40L in the presence of HSA (10 uM), detection with anti-cystatin antibody, OD 450-630 nm.
The target in assay [9] is T5, human serum albumin (human, UniProt P02768 25-609).
T5 construct: also called HSA
Kind of assay: bridging ELISA: binder captured on plate-coated hCD40L, HSA 10 uM, bound HSA detected with anti-HSA antibody. How it is done:
(§2) After saturation with 5% casein/PBS buffer, the plates were washed and a dilution of Stefin A protein variant or controls was incubated with HSA at a final concentration of 10 μM for 90 minutes. Plates were then washed, and a […], anti-HSA (HRP-conjugated) (Abcam), was added for 90 minutes. After a last washing step, TMB was added for the development of the experiment and the plates were read at 450 nm. The EC50 was then calculated using the interpolated non-linear four-parameters standard curve (FIG. 12C).

Assay [10] concerns the target T2, human CD40L. The assay can be described thus: bridging ELISA: capture on plate-coated hCD40L, HSA 10 uM, detection with anti-HSA antibody, OD 450-630 nm. How it is done:
as §2

The target of assay [11] is T2, human CD40L. The assay can be described thus: competitive ELISA: hCD40L (1 nM) premixed with the binder and added to plate-coated rhCD40 Fc; bound hCD40L detected with biotinylated anti-hCD40L polyclonal antibody. How it is done:
To evaluate the avidity of the different formats, a CD40L competitive ELISA was performed. Briefly, the plates were coated with rhCD40 Fc at 1 μg/ml and incubated overnight at 4° C. The plates were washed twice with 150 μl of washing buffer (PBS, Tween 20 0.1%) with a plate washer and saturated with Casein 5% (Sigma) in PBS for 90 minutes at room temperature (25±1° C.). […] The resulting solution was then mixed and added to the plates. The plates were washed 3 times as described previously. […] The plates were incubated for 90 minutes at room temperature (25±1° C.). The plates were then washed. PolyHRP-Streptavidin was then diluted in dilution buffer and added to the plates. The plates were incubated an additional 90 minutes at room temperature (25±1° C.). Plates were washed 3 times as described previously and the substrate (TMB, Pierce Thermo-Scientific) was added in the plate for 10 minutes. The reaction was stopped using an acidic solution and the plates were read at 450-630 nm and the resulting percent inhibition was calculated.

The target in assay [12] is T2, human CD40L. The assay can be described thus: cell-based or functional assay.

T5 sequence (P02768 25-609): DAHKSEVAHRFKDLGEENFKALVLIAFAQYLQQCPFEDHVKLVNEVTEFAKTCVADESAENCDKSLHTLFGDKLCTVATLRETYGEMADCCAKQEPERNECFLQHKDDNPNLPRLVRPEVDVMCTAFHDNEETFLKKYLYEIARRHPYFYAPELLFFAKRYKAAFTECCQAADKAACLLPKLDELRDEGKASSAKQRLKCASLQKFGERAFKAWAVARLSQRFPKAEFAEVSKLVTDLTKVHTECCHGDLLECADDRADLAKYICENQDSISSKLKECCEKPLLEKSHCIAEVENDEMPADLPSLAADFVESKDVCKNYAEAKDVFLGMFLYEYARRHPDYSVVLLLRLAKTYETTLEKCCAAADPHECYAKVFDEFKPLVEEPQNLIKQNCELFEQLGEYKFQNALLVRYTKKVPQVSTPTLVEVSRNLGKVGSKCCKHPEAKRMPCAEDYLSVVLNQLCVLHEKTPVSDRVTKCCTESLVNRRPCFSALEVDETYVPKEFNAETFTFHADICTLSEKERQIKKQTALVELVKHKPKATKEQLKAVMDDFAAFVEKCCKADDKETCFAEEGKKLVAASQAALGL

B1: stefin A protein variant clone 268 (designed binder)
chain: MIPGGLSEAKPATPEIQEIVDKVKPQLEEKTGETYGKLEAVQYKTQVVGDSYWEYVSGTNYYIKVRAGDNKYMHLKVFKSLPYRWRPDHAEDLVLTGYQVDKNKDDELTGF
For the molecule B1, in assay [1], the “% Positive” value came to 95.7% and the MFI was determined as 7780 MFI. Besides, in assay [2], the EC50 amounted to 31.2 nM.

B2: XT75 anti-CD40L stefin A protein variant secreted by gene-introduced MSC (eMSC) (designed binder)
chain: IPGGLSEAKPATPEIQEIVDKVKPQLEEKTGETYGKLEAVQYKTQVVHYYVHYNDQGTNYYIKVRAGDNKYMHLKVFKSLWGENLFAKWEDLVLTGYQVDKNKDDELTGFAEAAAKEAAAKEAAAKEAAAKEAAAKEAAAKMIPGGLSEAKPATPEIQEIVDKVKPQLEEKTGETYGKLEAVQYKTQVVHYYVHYNDQGTNYYIKVRAGDNKYMHLKVFKSLWGENLFAKWEDLVLTGYQVDKNKDDELTGFAEAAAKEAAAKEAAAKEAAAKEAAAKEAAAKMIPGGLSEAKPATPEIQEIVDKVKPQLEEKTGETYGKLEAVQYKTQVVHYYVHYNDQGTNYYIKVRAGDNKYMHLKVFKSLWGENLFAKWEDLVLTGYQVDKNKDDELTGFAEAAAKEAAAKEAAAKEAAAKEAAAKEAAAKMIPRGLSEAKPATPEIQEIVDKVKPQLEEKTGETYGKLEAVQYKTQVLANFFQRRWPGSTNYYIKVRAGDNKYMHLKVFNGPWKFRNTDRGADRVLTGYQVDKNKDDELTGF
notes: also called eMSC (XT75, w/EF1A); eMSC (XT75, w/CBh)
B2: the “IC50, HEK-Blue CD40L cell assay” value in [3] was 0.303 nM and 0.4 nM. Moreover, the “IC50 (read off the curve)” value in assay [4] was ~0.3 nM and ~0.4 nM. Further, the EC50 in [5] was 0.0039 nM; in assay [6], 0.0053 nM.

B3: clone-230 XT75 (trimer with a rigid linker and an HSA binding stefin A protein variant) (designed binder)
chain: B2 chain
notes: also called AFX01-230 XT75
For the molecule B3, the figures for the EC50 in assay [7], in assay [8] and in assay [10] were 0.02 nM, 0.04 nM and 0.41 nM, respectively. Moreover, the binding result in assay [9] was “binds”. The “IC50 (read off the curve)” value is about 4 nM in assay [11] and about 8 nM in assay [12].

B4: clone-230 XT76 (tetramer with a rigid linker and an HSA binding stefin A protein variant) (designed binder)
chain: IPGGLSEAKPATPEIQEIVDKVKPQLEEKTGETYGKLEAVQYKTQVVHYYVHYNDQGTNYYIKVRAGDNKYMHLKVFKSLWGENLFAKWEDLVLTGYQVDKNKDDELTGFAEAAAKEAAAKEAAAKEAAAKEAAAKEAAAKMIPGGLSEAKPATPEIQEIVDKVKPQLEEKTGETYGKLEAVQYKTQVVHYYVHYNDQGTNYYIKVRAGDNKYMHLKVFKSLWGENLFAKWEDLVLTGYQVDKNKDDELTGFAEAAAKEAAAKEAAAKEAAAKEAAAKEAAAKMIPGGLSEAKPATPEIQEIVDKVKPQLEEKTGETYGKLEAVQYKTQVVHYYVHYNDQGTNYYIKVRAGDNKYMHLKVFKSLWGENLFAKWEDLVLTGYQVDKNKDDELTGFAEAAAKEAAAKEAAAKEAAAKEAAAKEAAAKMIPGGLSEAKPATPEIQEIVDKVKPQLEEKTGETYGKLEAVQYKTQVVHYYVHYNDQGTNYYIKVRAGDNKYMHLKVFKSLWGENLFAKWEDLVLTGYQVDKNKDDELTGFAEAAAKEAAAKEAAAKEAAAKEAAAKEAAAKMIPRGLSEAKPATPEIQEIVDKVKPQLEEKTGETYGKLEAVQYKTQVLANFFQRRWPGSTNYYIKVRAGDNKYMHLKVFNGPWKFRNTDRGADRVLTGYQVDKNKDDELTGF
For the molecule B4, the results for the EC50 in assay [7], in [8] and in assay [10] were 0.07 nM, 0.1 nM and 0.8 nM, respectively. Moreover, the “IC50 (read off the curve)” value in assay [11] is about 3 nM; in assay [12] it was about 2 nM.
